Patent publication US20040071701A1, “Use of NGF-antagonists for the prevention or treatment of chronic visceral pain” (priority 2002, published 2004)

Assays:
TNBS-treated rats = assay: Colonic distension-induced pain threshold in TNBS-treated rats (chronic colonic allodynia); type: in vivo, rat; settings: 30 mg/kg s.c. in 20% cyclodextrin 30 minutes before distension, mean +/- SEM (n=7-8), vehicle 17.8+/-1.8, p<0.01
Experimental: (§1) Adult male rats of the Wistar strain, 320 to 350 g in weight (obtained from the Janvier farm, Le Genest-Saint-Isle, France) were used for all the experiments. They were kept under controlled conditions of temperature (20+/−1° C.), humidity (50+/−5%) and lighting (light from 7 to 19 hours). The animals were starved of food for 18 hours before the beginning of the experiments, the supply of water being maintained.
(§2) Distension studies were carried out on waking rats in isobaric mode, using pressure increments of 5 mm of mercury every thirty seconds. A latex balloon, placed in the distal part of the colon is linked to an electronic barostat. The pain threshold is defined as the pressure inducing the first abdominal contraction. Each rat is subjected to four distension trials so as to increase the reproducibility of the test. The mean of the pressure values is calculated on the thresholds observed for the four successive distensions.
A laparotomy is carried out on rats anaesthetized with acepromazine (12 mg/kg i.p.) and ketamine (80 mg/kg i.p.) so as to inject into the proximal colon the trinitrobenzenesulphonic acid (TNBS) (50 mg/kg) in ethanol at 30%. The rats are then placed in individual cages. The colonic distension experiment is performed seven days after the administration of TNBS. […]

naïve rats = assay: Colonic distension-induced pain threshold in naïve rats (isobaric balloon distension); type: in vivo, rat
Experimental: as §1, §2
2.5 S-NGF obtained from mouse submaxillary gland (marketed by the company SIGMA under the reference N-6009) is dissolved in 0.1% bovine serum albumin (BSA). Into the naïve rats, 0.1 ng to 100 ng of NGF are injected by the i.p. route, 30 minutes before the distension.
Naïve rats were subjected to distension experiments with a balloon placed in the distal part of the colon. […]

Molecule	colonic pain threshold (TNBS-treated rats)	colonic pain threshold (naïve rats; naïve Wistar rats, 1 ng of NGF i.p. 30 minutes before distension, control (BSA) about 44 mmHg)	effect on threshold of pain in the colon (naïve rats; naïve rats, increasing doses of NGF (0.1 ng to 100 ng) i.p.)
O=C1c2cccc3cc([N+](=O)[O-])cc(c23)C(=O)N1NCCO [ALE-0540]	37.6+/−4.5 mmHg		
NGF: 2.5 S-NGF obtained from mouse submaxillary gland (SIGMA reference N-6009) (protein, UniProt P01139 122-241, looked up, Beta-nerve growth factor) Beta-nerve growth factor: SSTHPVFHMGEFSVCDSVSVWVGDKTTATDIKGKEVTVLAEVNINNSVFRQYFFETKCRASNPVESGCRGIDSKHWNSYCTTTHTFVKALTTDEKQAAWRFIRIDTACVCVLSRKATRRG		less than 20 mmHg	significant reduction
